The values that follow come from publication PMC2879509.

The target in data set [1] is MSL2-ΔPro/Bas (Drosophila melanogaster) (UniProt P50534). The data set is described as follows: EMSA.
Data set [2] addresses T1, MSL2 (Drosophila melanogaster, UniProt P50534 1-773).
T1 sequence: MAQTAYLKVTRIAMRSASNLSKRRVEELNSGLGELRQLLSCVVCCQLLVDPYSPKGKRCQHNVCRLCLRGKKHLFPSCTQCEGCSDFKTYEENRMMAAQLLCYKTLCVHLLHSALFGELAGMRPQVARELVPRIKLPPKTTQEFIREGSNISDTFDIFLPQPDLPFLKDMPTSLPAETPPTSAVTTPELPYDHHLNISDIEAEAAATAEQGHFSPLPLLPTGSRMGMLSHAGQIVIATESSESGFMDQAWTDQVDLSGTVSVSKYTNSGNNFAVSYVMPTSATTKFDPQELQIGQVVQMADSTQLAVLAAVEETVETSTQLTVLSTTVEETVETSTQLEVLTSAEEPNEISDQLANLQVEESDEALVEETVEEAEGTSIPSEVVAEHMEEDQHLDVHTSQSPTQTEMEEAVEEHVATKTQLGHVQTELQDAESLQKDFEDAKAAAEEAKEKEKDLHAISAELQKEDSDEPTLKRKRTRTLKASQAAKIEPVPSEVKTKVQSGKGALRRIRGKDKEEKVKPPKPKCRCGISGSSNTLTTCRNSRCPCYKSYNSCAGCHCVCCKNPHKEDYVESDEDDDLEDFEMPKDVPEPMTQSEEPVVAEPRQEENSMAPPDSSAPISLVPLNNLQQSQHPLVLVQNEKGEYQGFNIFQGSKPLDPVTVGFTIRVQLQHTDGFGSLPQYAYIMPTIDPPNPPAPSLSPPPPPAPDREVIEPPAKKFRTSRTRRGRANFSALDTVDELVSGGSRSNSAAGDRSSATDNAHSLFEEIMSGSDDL
The data set is described as follows: EMSA.

The target of data set [3] is T2, MSL2-ΔRING (Drosophila melanogaster, UniProt P50534 1-40+86-773, internal_change).
T2 sequence: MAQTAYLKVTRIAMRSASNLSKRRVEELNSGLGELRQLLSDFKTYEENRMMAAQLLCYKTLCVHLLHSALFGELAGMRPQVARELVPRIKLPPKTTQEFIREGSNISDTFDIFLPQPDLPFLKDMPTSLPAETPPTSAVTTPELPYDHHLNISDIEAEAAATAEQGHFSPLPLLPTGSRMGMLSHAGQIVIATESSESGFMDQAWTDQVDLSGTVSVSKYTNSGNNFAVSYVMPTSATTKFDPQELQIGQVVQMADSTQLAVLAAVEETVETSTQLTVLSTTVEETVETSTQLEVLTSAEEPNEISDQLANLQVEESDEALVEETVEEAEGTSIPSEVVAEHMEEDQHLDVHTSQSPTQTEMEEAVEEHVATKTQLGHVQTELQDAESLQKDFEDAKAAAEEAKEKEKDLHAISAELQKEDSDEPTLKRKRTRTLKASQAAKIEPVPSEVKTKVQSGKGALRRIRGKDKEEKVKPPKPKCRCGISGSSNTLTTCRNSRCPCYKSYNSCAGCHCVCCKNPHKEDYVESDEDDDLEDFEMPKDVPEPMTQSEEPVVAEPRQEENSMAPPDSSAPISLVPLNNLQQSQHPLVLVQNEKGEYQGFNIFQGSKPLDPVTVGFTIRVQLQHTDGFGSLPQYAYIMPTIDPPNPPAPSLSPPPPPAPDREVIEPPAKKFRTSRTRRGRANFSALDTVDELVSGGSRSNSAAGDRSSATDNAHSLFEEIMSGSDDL
The data set is described as follows: EMSA.

The target of data set [4] is T3, MSL2-ΔCXC (Drosophila melanogaster, UniProt P50534 1-519+572-773, internal_change).
T3 sequence: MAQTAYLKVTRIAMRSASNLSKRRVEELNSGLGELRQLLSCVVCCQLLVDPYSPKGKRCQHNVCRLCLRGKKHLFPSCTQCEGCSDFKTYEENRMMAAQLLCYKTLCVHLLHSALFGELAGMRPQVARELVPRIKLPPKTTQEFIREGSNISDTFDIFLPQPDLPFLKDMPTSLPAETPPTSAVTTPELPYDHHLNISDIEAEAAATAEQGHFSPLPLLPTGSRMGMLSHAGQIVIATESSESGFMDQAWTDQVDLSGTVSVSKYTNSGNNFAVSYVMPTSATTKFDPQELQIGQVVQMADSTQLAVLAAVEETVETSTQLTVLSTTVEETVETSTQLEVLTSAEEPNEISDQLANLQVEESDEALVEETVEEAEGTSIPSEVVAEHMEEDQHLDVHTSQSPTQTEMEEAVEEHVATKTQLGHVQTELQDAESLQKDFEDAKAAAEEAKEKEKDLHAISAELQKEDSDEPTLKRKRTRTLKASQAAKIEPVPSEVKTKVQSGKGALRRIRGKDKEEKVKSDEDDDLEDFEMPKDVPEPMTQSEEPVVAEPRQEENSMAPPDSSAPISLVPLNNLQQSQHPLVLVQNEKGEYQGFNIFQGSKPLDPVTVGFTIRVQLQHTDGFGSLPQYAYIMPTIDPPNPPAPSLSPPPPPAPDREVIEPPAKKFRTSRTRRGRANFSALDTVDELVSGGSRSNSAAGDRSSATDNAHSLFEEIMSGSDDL
The data set is described as follows: EMSA.

Data set [5] concerns the target T1, MSL2. The data set is described as follows: competition.

As for “UGCGGCCAUCUCUUUCGUUUUGAUGUUUCUACGCCAUGUG / CACAUGGCGUAGAAACAUCAAAACGAAAGAGAUGGCCGCA [DBF12-L15 dsRNA 40 bp]”, the Kd in data set [1] turned out to be 37 nM.

B1: DBF12-L15 dsRNA 40 bp (dsRNA)
RNA 1: UGCGGCCAUCUCUUUCGUUUUGAUGUUUCUACGCCAUGUG
RNA 2: CACAUGGCGUAGAAACAUCAAAACGAAAGAGAUGGCCGCA
Regarding B1, the results for the Kd in data set [2], in data set [3] and in data set [4] were 21 ± 4 nM, 23 ± 5 nM and 29 ± 12 nM, respectively. Also, the IC50 in data set [5] was 36 ± 8 nM.
